These results are taken from patent US10766960 (dated 2020).

Test in all cases: SPR
(In general: SPR reads the build-up and loss of mass on a sensor chip optically.)

One assay concerns the target FcgRIIIa V (human, UniProt P08637).
In a further assay the target is T1, FcgRIIa H (human, UniProt P12318).
T1 chain: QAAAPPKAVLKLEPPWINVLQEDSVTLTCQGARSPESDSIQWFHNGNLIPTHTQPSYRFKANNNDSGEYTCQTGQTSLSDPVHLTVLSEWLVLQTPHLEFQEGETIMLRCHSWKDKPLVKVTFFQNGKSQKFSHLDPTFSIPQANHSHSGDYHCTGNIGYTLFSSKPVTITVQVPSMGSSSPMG

For another assay, the target named is T2, FcgRIa (human, UniProt P12314).
T2 chain: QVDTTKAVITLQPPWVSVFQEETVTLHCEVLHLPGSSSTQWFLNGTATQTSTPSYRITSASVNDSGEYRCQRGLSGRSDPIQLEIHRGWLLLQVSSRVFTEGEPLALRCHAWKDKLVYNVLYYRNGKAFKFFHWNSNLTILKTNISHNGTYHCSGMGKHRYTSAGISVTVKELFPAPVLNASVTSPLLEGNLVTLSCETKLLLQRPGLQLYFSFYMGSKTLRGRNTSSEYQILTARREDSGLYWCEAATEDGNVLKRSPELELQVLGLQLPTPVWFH

Another assay deals with T3, FcgRIIa R (human, UniProt P12318).
T3 chain: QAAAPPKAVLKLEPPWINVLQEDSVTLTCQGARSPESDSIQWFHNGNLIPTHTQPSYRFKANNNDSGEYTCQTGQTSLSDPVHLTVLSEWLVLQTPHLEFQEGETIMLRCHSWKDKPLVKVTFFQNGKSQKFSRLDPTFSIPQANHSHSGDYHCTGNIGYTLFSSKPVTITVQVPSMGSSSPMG

The target in the next assay is FcgRIIIa F (human, UniProt P08637).
The next assay concerns the target T4, FcgRIIb (human, UniProt P31994).
T4 chain: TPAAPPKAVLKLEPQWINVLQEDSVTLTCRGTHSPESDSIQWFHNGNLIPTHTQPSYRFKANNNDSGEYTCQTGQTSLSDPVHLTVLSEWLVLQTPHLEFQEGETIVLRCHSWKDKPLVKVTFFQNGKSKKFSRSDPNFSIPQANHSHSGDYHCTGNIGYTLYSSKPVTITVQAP

FcgRIIIa F, sequence (P08637 17-208): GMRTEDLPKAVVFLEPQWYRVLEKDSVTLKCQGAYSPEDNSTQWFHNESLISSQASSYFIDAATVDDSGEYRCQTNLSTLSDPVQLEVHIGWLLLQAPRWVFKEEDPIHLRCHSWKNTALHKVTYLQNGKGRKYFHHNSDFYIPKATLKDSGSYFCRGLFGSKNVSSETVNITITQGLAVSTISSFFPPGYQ
FcgRIIIa V, sequence (P08637 17-208 F176V): as the sequence (P08637 17-208) above, with F160V counted along it

B1: H240-Kn192/H240-Hl204/L73-k0 (antibody)
chain 1: QDQLVQSGAEVKKPGASVKVSCKASGFNIKDTYIQWVRQAPGQGLEWMGRIDPLRKQTKYREKFEGRVTITADTSTNTAYMELSSLRSEDTAVYYCVRSGREFDYWGQGTLVTVSSASTKGPSVFPLAPSSKSTSGGTAALGCLVKDYFPEPVTVSWNSGALTSGVHTFPAVLQSSGLYSLSSVVTVPSSSLGTQTYICNVNHKPSNTKVDKKVEPKSCDKTHTCPPCPAPEYNWGPMVFLFPPKPKDTLMISRTPEVTCVVVDVSDEDPEVKFNWYVDGVEVHNAKTKPREKQYNATYRVVSVLTVLHQDWLNGKEYKCKVSNKDLPAPIEKTISKAKGQPREPQVCTLPPSRDELTKNQVSLWCLVKGFYPSDIAVEWESNGQPENNYKTTPPVLDSDGSFFLYSKLTVDKSRWQQGNVFSCSVMHEALHNHYTQKSLSLSP
chain 2: QDQLVQSGAEVKKPGASVKVSCKASGFNIKDTYIQWVRQAPGQGLEWMGRIDPLRKQTKYREKFEGRVTITADTSTNTAYMELSSLRSEDTAVYYCVRSGREFDYWGQGTLVTVSSASTKGPSVFPLAPSSKSTSGGTAALGCLVKDYFPEPVTVSWNSGALTSGVHTFPAVLQSSGLYSLSSVVTVPSSSLGTQTYICNVNHKPSNTKVDKKVEPKSCDKTHTCPPCPAPELLTGPSVFLFPPKPKDTLMISRTPEVTCVVVDVSHEEPEVKFNWYVDGVEVHNAKTKPREEQYNSTYRVVSVLTVLHQDWLNGKEYKCKVSNDALPKPEEETISKAKGQPREPQVYTLPPSRCELTKNQVSLSCAVKGFYPSDIAVEWESNGQPENNYKTTPPVLDSDGSFFLVSKLTVDKSRWQQGNVFSCSVMHEALHNHYTQKSLSLSP
chain 3: DIQMTQSPSSLSASVGDRVTITCRASQDIHKYIAWYQQKPGQAPRLLIQYTSTLQPGVPSRFSGSGSGTDYTFTISSLQPEDIATYYCLQYEQLRTFGGGTKVEIKRTVAAPSVFIFPPSDEQLKSGTASVVCLLNNFYPREAKVQWKVDNALQSGNSQESVTEQDSKDSTYSLSSTLTLSKADYEKHKVYACEVTHQGLSSPVTKSFNRGEC
Take B1: the Kd (commonly a measure of binding affinity in units of concentration) was 2.2 nM with FcgRIIIa V; 42 nM with FcgRIIa H; below 0.019 nM in the assay with FcgRIa; 19 nM in the assay with FcgRIIa R; 12 nM with FcgRIIIa F; 290 nM in the assay with FcgRIIb.

B2: H240-Kn180/H240-Hl089/L73-k0 (antibody)
chain 1: QDQLVQSGAEVKKPGASVKVSCKASGFNIKDTYIQWVRQAPGQGLEWMGRIDPLRKQTKYREKFEGRVTITADTSTNTAYMELSSLRSEDTAVYYCVRSGREFDYWGQGTLVTVSSASTKGPSVFPLAPSSKSTSGGTAALGCLVKDYFPEPVTVSWNSGALTSGVHTFPAVLQSSGLYSLSSVVTVPSSSLGTQTYICNVNHKPSNTKVDKKVEPKSCDKTHTCPPCPAPEYYWGPMVFLFPPKPKDTLMISRTPEVTCVVVDVSDEDPEVKFNWYVDGVEVHNAKTKPRERQYNATYRVVSVLTVLHQDWLNGKEYKCKVSNKDLPAPIEKTISKAKGQPREPQVCTLPPSRDELTKNQVSLWCLVKGFYPSDIAVEWESNGQPENNYKTTPPVLDSDGSFFLYSKLTVDKSRWQQGNVFSCSVMHEALHNHYTQKSLSLSP
chain 2: QDQLVQSGAEVKKPGASVKVSCKASGFNIKDTYIQWVRQAPGQGLEWMGRIDPLRKQTKYREKFEGRVTITADTSTNTAYMELSSLRSEDTAVYYCVRSGREFDYWGQGTLVTVSSASTKGPSVFPLAPSSKSTSGGTAALGCLVKDYFPEPVTVSWNSGALTSGVHTFPAVLQSSGLYSLSSVVTVPSSSLGTQTYICNVNHKPSNTKVDKKVEPKSCDKTHTCPPCPAPELLTGPSVFLFPPKPKDTLMISRTPEVTCVVVDVSHEEPEVKFNWYVDGVEVHNAKTKPREEQYNSTYRVVSVLTVLHQDWLNGKEYKCKVSNDALPKPIEETISKAKGQPREPQVYTLPPSRCELTKNQVSLSCAVKGFYPSDIAVEWESNGQPENNYKTTPPVLDSDGSFFLVSKLTVDKSRWQQGNVFSCSVMHEALHNHYTQKSLSLSP
chain 3: DIQMTQSPSSLSASVGDRVTITCRASQDIHKYIAWYQQKPGQAPRLLIQYTSTLQPGVPSRFSGSGSGTDYTFTISSLQPEDIATYYCLQYEQLRTFGGGTKVEIKRTVAAPSVFIFPPSDEQLKSGTASVVCLLNNFYPREAKVQWKVDNALQSGNSQESVTEQDSKDSTYSLSSTLTLSKADYEKHKVYACEVTHQGLSSPVTKSFNRGEC
For the molecule B2, the Kd with FcgRIIIa V was found to be 14 nM; with FcgRIIa H it was 38 nM; in the assay with FcgRIa, 0.27 nM; with FcgRIIa R it was 16 nM; with FcgRIIIa F, 24 nM; with FcgRIIb, 380 nM.
